Drawing on patent US20220229068A1, “DETECTION OF PROTEIN TO PROTEIN INTERACTIONS” (THE GOVERNING COUNCIL OF THE UNIVERSITY OF TORONTO, priority 2019, published 2022), this text covers PLU mean, ELISA Value Replicate 1 and ELISA Value Replicate 2 for eleven substances.

Assay [1] deals with HSP90AA1 (prey, CIC format) (human) (UniProt P07900). Nature of the assay: SIMPL ELISA, bait-IN/prey-CIC.
For assay [2], the target named is RELA (prey, CIC format) (human) (UniProt Q04206). Nature of the assay: SIMPL ELISA, bait-IN/prey-CIC.
Assay [3] concerns the target RAD23A (prey, CIC format) (human) (UniProt P54725). The assay can be described thus: SIMPL ELISA, bait-IN/prey-CIC. (In general: ELISA stands for enzyme-linked immunosorbent assay.)
The target of assay [4] is NPP-1 (C. elegans prey, IC format) (C. elegans). Nature of the assay: SIMPL ELISA, C. elegans lysate, IN/IC; ratio of spliced signal to total signal.
The target in assay [5] is T1, NCBP2 (prey, CIC format) (human) (UniProt P52298).
T1 sequence (looked up): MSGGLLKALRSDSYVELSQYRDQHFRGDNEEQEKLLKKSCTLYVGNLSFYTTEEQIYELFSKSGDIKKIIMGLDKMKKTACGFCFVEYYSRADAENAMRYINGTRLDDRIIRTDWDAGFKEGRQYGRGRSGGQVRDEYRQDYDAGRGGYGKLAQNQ
Nature of the assay: SIMPL ELISA, bait-IN/prey-CIC.

Assay [6] has as its target T2, FRS2 (prey, CIC format) (human) (UniProt Q8WU20).
T2 sequence (looked up): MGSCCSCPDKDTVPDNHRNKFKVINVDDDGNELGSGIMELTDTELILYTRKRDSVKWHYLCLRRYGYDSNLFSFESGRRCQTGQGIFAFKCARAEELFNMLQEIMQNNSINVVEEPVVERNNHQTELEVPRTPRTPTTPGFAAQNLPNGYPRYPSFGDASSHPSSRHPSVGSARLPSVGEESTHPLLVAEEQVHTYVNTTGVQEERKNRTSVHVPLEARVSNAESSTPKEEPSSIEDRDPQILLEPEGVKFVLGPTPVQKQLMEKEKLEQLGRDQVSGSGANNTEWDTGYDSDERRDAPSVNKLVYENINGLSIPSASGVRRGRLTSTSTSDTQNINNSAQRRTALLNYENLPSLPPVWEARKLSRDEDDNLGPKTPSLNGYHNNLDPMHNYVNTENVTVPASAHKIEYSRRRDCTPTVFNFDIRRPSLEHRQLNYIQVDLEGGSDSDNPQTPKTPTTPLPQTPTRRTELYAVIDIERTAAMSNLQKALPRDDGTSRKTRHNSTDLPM
The assay can be described thus: SIMPL ELISA, bait-IN/prey-CIC.

Assay [7] concerns the target RAN (prey, CIC format) (human) (UniProt P62826). Nature of the assay: SIMPL ELISA, bait-IN/prey-CIC.
Assay [8] addresses PTPN11 (prey, CIC format) (human) (UniProt Q06124). Nature of the assay: SIMPL ELISA, bait-IN/prey-CIC.
Assay [9] addresses CYB-1 (C. elegans prey, CIC format) (C. elegans) (UniProt Q10653). The assay can be described thus: SIMPL ELISA, C. elegans lysate, IN/CIC; ratio of spliced signal to total signal.
For assay [10], the target named is T3, ARFIP2 (prey, CIC format) (human) (UniProt P53365).
T3 sequence (looked up): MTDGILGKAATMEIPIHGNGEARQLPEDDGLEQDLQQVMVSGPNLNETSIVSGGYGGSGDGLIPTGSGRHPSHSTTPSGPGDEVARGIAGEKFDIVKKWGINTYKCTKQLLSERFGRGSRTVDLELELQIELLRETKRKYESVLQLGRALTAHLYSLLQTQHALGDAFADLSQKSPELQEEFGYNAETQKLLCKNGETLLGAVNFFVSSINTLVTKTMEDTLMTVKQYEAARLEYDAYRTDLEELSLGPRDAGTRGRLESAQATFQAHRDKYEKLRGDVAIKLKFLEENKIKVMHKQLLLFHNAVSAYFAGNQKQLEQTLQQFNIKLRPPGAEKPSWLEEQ
The assay can be described thus: SIMPL ELISA, bait-IN/prey-CIC.

Assay [11] has as its target CASP9 (prey, CIC format) (human) (UniProt P55211). The assay can be described thus: SIMPL ELISA, bait-IN/prey-CIC.
The target of assay [12] is T4, SOC-2 (C. elegans prey, CIC format) (C. elegans) (UniProt Q22875).
T4 sequence (looked up): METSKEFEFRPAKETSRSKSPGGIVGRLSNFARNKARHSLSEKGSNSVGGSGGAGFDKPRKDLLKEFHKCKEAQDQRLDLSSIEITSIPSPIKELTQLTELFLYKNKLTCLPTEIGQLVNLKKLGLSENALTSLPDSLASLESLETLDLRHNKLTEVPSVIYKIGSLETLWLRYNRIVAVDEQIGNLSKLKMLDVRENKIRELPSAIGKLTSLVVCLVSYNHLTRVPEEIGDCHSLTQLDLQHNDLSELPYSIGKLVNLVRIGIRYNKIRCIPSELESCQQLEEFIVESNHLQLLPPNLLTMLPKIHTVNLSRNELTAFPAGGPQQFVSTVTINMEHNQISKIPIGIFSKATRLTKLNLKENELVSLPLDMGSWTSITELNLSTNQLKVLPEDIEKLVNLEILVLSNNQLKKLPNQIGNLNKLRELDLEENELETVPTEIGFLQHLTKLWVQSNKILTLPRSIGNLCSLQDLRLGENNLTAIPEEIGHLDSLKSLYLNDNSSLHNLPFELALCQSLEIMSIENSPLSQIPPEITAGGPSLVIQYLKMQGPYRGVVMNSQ
The assay can be described thus: SIMPL ELISA, C. elegans lysate, IN/CIC; ratio of spliced signal to total signal.

Assay [13] concerns the target T5, SOC-2 (C. elegans prey, IC format) (C. elegans) (UniProt Q22875).
T5 sequence (looked up): T4 sequence (looked up)
The assay can be described thus: SIMPL ELISA, C. elegans lysate, IN/IC; ratio of spliced signal to total signal.

Assay [14] addresses LMNB1 (prey, CIC format) (human) (UniProt P20700). The assay can be described thus: SIMPL ELISA, bait-IN/prey-CIC.
The target of assay [15] is T6, RB1 (prey, CIC format) (human) (UniProt P06400).
T6 sequence (looked up): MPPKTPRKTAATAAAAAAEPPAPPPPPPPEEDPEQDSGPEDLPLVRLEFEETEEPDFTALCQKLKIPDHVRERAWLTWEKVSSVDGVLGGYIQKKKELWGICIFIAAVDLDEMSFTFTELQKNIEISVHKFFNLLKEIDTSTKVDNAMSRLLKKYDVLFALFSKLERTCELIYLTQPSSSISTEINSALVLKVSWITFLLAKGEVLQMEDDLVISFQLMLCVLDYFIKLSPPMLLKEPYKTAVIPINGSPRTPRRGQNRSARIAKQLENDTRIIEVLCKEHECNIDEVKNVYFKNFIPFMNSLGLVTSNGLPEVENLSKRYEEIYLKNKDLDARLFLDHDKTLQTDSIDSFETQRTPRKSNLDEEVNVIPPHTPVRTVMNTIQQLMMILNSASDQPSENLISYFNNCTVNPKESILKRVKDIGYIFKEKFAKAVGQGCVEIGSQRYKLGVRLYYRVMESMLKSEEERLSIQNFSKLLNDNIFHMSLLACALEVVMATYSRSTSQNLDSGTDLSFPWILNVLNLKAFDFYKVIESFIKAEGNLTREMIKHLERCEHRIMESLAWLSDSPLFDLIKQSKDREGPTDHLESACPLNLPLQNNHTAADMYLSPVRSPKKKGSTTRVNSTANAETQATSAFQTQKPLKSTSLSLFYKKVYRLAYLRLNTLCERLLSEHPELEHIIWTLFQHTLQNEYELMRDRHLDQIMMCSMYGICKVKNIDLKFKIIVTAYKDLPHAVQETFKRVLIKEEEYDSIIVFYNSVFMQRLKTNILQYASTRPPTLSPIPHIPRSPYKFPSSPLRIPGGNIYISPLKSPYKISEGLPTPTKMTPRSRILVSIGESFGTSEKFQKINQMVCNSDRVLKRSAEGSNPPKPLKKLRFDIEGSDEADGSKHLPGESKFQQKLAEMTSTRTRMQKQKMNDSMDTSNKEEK
The assay can be described thus: SIMPL ELISA, bait-IN/prey-CIC.

Assay [16] has as its target T7, PEX3 (prey, CIC format) (human) (UniProt P56589).
T7 sequence (looked up): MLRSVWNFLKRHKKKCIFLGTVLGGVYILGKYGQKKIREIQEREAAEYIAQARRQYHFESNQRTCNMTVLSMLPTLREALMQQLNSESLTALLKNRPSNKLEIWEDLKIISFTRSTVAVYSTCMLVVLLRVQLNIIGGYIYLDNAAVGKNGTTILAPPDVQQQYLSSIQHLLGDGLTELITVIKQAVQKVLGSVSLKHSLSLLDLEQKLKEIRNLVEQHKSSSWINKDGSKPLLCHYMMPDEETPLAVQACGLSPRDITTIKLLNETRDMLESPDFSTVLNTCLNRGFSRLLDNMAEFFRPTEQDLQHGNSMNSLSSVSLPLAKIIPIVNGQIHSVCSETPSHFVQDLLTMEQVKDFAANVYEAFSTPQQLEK
The assay can be described thus: SIMPL ELISA, bait-IN/prey-CIC.

Assay [17] concerns the target F44B9.8 (C. elegans prey, IC format) (C. elegans) (UniProt P34429). Nature of the assay: SIMPL ELISA, C. elegans lysate, IN/IC; ratio of spliced signal to total signal.
The target of assay [18] is T8, PDPK1 (prey, CIC format) (human) (UniProt O15530).
T8 sequence (looked up): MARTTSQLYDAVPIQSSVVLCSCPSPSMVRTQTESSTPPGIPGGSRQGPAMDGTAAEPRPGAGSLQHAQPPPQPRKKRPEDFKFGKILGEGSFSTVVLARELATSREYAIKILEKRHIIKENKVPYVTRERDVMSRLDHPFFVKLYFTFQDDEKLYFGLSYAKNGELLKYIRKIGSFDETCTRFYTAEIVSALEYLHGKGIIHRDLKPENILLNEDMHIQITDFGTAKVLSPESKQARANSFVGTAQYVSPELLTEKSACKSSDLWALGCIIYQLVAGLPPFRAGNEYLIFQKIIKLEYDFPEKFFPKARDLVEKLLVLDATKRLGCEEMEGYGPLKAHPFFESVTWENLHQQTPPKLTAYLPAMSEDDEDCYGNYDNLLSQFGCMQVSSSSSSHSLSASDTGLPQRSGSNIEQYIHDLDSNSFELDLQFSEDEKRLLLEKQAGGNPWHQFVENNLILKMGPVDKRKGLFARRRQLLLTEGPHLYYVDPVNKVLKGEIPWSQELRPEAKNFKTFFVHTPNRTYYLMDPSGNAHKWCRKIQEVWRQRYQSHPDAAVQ
The assay can be described thus: SIMPL ELISA, bait-IN/prey-CIC.

Assay [19] concerns the target T9, PEX19 (prey, CIC format) (human) (UniProt P40855).
T9 sequence (looked up): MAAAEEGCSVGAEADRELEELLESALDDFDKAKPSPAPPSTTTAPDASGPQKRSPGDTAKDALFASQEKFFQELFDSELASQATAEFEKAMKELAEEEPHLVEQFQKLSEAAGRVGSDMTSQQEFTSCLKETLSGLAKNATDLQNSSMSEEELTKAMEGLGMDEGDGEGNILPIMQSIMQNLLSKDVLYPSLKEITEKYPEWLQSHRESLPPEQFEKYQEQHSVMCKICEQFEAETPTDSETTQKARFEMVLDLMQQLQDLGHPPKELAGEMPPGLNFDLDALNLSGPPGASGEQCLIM
The assay can be described thus: SIMPL ELISA, bait-IN/prey-CIC.

In assay [20] the target is TCL1A (prey, CIC format) (human) (UniProt P56279). Nature of the assay: SIMPL ELISA, bait-IN/prey-CIC.
In assay [21] the target is RACK1 (prey, CIC format) (human) (UniProt P63244). Nature of the assay: SIMPL ELISA, bait-IN/prey-CIC.
For assay [22], the target named is EZR (prey, CIC format) (human) (UniProt P15311). The assay can be described thus: SIMPL ELISA, bait-IN/prey-CIC.

As to “NR3C1 (bait, IN format) (from UniProt P04150 1-777) (receptor)”, the PLU mean is 0.652 in assay [1], 0.63 in [2] and 0.183 in [3].
On to NPP-11 (C. elegans bait, IN-V5/HA), for which, in assay [4], the ELISA Value Replicate 1 is 1.8 and the ELISA Value Replicate 2 is 0.92.
Take “RET (bait, IN format) (from UniProt P07949 29-1114) (receptor)”: the figures for the PLU mean in assay [5] and in [6] were 1.06 and 0.608, respectively.
Regarding “PDGFRB (bait, IN format) (from UniProt P09619 33-1106) (receptor)”, the PLU mean turned out to be 0.143 in assay [7] and 0.539 in [8].
Take “CDK-1 (C. elegans bait, IN-V5/HA) (from UniProt P34556 1-332) (enzyme)”: in [9], the ELISA Value Replicate 1 amounted to 1.1 and the ELISA Value Replicate 2 worked out at 0.8.
With “XIAP (bait, IN format) (from UniProt P98170 1-497)”, the PLU mean in [10] came out at 0.439; in [11], 0.811.
On to “LET-60 (C. elegans bait, IN-V5/HA) (from UniProt P22981 1-184)”, for which the results for the ELISA Value Replicate 1 in assay [12] and in [13] were 0.79 and 1.2, respectively. For the same substance, the ELISA Value Replicate 2 in assay [12] came to 0.7; in assay [13] it was 0.59.
As to “LMNA (bait, IN format) (from UniProt P02545 1-664)”, the PLU mean in [14] stood at 0.861; in assay [15] it was 1.18; in assay [16] it was 0.224.
For RFC-2 (C. elegans bait, IN-V5/HA), in assay [17], the ELISA Value Replicate 1 amounted to 0.66 and the ELISA Value Replicate 2 came out at 0.88.
Regarding “AKT1 (bait, IN format) (from UniProt P31749 1-480) (enzyme)”, the PLU mean in assay [18] came to 0.486; in assay [19], 0.218; in [20], 0.111.
Turning to “PDE4D (bait, IN format) (from UniProt Q08499 1-809) (enzyme)”, the PLU mean in assay [21] was determined as 0.639; in assay [22] it was 0.137.
